Results on 31 molecules are retold here after article PMC10786891, “Massively parallel profiling of RNA-targeting CRISPR-Cas13d”.

Changes are numbered by the printed parent chain. In names and notes the source's numbering stands.

Broadly, the Kd is the concentration at which binding is half-saturated. A higher Kd goes with lower affinity.

The chains are these.
T1: EsCas13d, nuclease-dead (Eubacterium siraeum, UniProt B0MS50, R295A;H300A;R849A;H854A)
T1 sequence: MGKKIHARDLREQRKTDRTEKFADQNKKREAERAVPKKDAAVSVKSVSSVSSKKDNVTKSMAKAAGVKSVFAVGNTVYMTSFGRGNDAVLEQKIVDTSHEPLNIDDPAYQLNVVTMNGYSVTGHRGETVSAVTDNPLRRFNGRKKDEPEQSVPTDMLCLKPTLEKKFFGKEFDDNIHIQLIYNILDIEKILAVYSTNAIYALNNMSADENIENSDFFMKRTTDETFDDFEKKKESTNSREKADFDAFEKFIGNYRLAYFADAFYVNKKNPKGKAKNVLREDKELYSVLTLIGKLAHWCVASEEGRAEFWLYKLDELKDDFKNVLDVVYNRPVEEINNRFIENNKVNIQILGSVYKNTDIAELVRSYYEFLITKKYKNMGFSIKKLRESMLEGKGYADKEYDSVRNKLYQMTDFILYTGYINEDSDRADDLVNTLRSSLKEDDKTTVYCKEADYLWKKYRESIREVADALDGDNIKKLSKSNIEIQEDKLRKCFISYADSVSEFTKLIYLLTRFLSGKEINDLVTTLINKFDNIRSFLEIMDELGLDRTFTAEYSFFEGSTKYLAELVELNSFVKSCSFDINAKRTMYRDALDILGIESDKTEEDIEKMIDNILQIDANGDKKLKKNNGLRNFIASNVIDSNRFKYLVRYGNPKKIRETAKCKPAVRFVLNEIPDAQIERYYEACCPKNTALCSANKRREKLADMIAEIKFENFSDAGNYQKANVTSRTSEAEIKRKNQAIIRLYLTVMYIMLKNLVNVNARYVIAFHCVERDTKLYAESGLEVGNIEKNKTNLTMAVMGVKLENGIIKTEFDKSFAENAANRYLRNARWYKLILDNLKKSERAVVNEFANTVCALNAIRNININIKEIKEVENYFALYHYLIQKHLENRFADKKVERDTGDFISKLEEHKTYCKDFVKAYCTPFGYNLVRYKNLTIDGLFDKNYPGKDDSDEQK

B1: target 2 MT 5'PFS GAC 3'PFS UGU (mixed)
RNA 1: CACCCGUGCAAAAUUGCAGGGGUCUAAAACCUUCUCCAAAUUGUUUCAUCCU
RNA 2: GGGAAUGGAUCCACAUCUACGAAUUCGACAGGAUGAAACAAUUUGGAGAAGUGUAGAUCGGAAGAGCACACGU
B2: target 2 MT 5'PFS UAU 3'PFS AAC (mixed)
RNA 1: B1 RNA 1
RNA 2: B1 RNA 2 with G27U, C29U, U52A, G53A, U54C
B3: target 2 MT 5'PFS AUG 3'PFS UAA (mixed)
RNA 1: B1 RNA 1
RNA 2: B1 RNA 2 with G27A, A28U, C29G, G53A, U54A
B4: target 2 MT 5'PFS AGG 3'PFS CUU (mixed)
RNA 1: B1 RNA 1
RNA 2: B1 RNA 2 with G27A, A28G, C29G, U52C, G53U
B5: target 2 MT 5'PFS CUG 3'PFS UAA (mixed)
RNA 1: B1 RNA 1
RNA 2: B1 RNA 2 with G27C, A28U, C29G, G53A, U54A
B6: target 2 MT 5'PFS CAU 3'PFS AAG (mixed)
RNA 1: B1 RNA 1
RNA 2: B1 RNA 2 with G27C, C29U, U52A, G53A, U54G
B7: target 2 MT 5'PFS AGG 3'PFS CUG (mixed)
RNA 1: B1 RNA 1
RNA 2: B1 RNA 2 with G27A, A28G, C29G, U52C, G53U, U54G
B8: target 2 MT 5'PFS AUG 3'PFS UAC (mixed)
RNA 1: B1 RNA 1
RNA 2: B1 RNA 2 with G27A, A28U, C29G, G53A, U54C
B9: target 2 MT 5'PFS UCU 3'PFS AUA (mixed)
RNA 1: B1 RNA 1
RNA 2: B1 RNA 2 with G27U, A28C, C29U, U52A, G53U, U54A
B10: target 2 MT 5'PFS CGA 3'PFS CAC (mixed)
RNA 1: B1 RNA 1
RNA 2: B1 RNA 2 with G27C, A28G, C29A, U52C, G53A, U54C
B11: target 2 MT 5'PFS CGA 3'PFS CAA (mixed)
RNA 1: B1 RNA 1
RNA 2: B1 RNA 2 with G27C, A28G, C29A, U52C, G53A, U54A
B12: target 2 MT 5'PFS UGG 3'PFS UCA (mixed)
RNA 1: B1 RNA 1
RNA 2: B1 RNA 2 with G27U, A28G, C29G, G53C, U54A
B13: target 2 MT 5'PFS UUC 3'PFS CUC (mixed)
RNA 1: B1 RNA 1
RNA 2: B1 RNA 2 with G27U, A28U, U52C, G53U, U54C
B14: target 2 MT 5'PFS GCA 3'PFS AGC (mixed)
RNA 1: B1 RNA 1
RNA 2: B1 RNA 2 with A28C, C29A, U52A, U54C
B15: target 2 MT 5'PFS CAU 3'PFS CAU (mixed)
RNA 1: B1 RNA 1
RNA 2: B1 RNA 2 with G27C, C29U, U52C, G53A
B16: target 2 MT 5'PFS UGG 3'PFS UCU (mixed)
RNA 1: B1 RNA 1
RNA 2: B1 RNA 2 with G27U, A28G, C29G, G53C
B17: target 2 MT 5'PFS UAU 3'PFS AAA (mixed)
RNA 1: B1 RNA 1
RNA 2: B1 RNA 2 with G27U, C29U, U52A, G53A, U54A
B18: target 2 MT 5'PFS GGU 3'PFS UAU (mixed)
RNA 1: B1 RNA 1
RNA 2: B1 RNA 2 with A28G, C29U, G53A
B19: target 2 MT 5'PFS UGA 3'PFS CUU (mixed)
RNA 1: B1 RNA 1
RNA 2: B1 RNA 2 with G27U, A28G, C29A, U52C, G53U
B20: target 2 MT 5'PFS AUG 3'PFS UAU (mixed)
RNA 1: B1 RNA 1
RNA 2: B1 RNA 2 with G27A, A28U, C29G, G53A
B21: target 2 MT 5'PFS CUA 3'PFS ACC (mixed)
RNA 1: B1 RNA 1
RNA 2: B1 RNA 2 with G27C, A28U, C29A, U52A, G53C, U54C
B22: target 2 MT 5'PFS CGG 3'PFS UUU (mixed)
RNA 1: B1 RNA 1
RNA 2: B1 RNA 2 with G27C, A28G, C29G, G53U
B23: target 2 MT 5'PFS AGG 3'PFS AGG (mixed)
RNA 1: B1 RNA 1
RNA 2: B1 RNA 2 with G27A, A28G, C29G, U52A, U54G
B24: target 2 MT 5'PFS UAU 3'PFS AAG (mixed)
RNA 1: B1 RNA 1
RNA 2: B1 RNA 2 with G27U, C29U, U52A, G53A, U54G
B25: target 2 MT 5'PFS GGU 3'PFS UAA (mixed)
RNA 1: B1 RNA 1
RNA 2: B1 RNA 2 with A28G, C29U, G53A, U54A
B26: target 2 MT 5'PFS GCA 3'PFS AGA (mixed)
RNA 1: B1 RNA 1
RNA 2: B1 RNA 2 with A28C, C29A, U52A, U54A
B27: target 2 MT 5'PFS AGG 3'PFS CUC (mixed)
RNA 1: B1 RNA 1
RNA 2: B1 RNA 2 with G27A, A28G, C29G, U52C, G53U, U54C
B28: target 2 MT 5'PFS AUU 3'PFS AAC (mixed)
RNA 1: B1 RNA 1
RNA 2: B1 RNA 2 with G27A, A28U, C29U, U52A, G53A, U54C
B29: target 1 C2U,U3A (mixed)
RNA 1: CACCCGUGCAAAAAUGCAGGGGUCUAAAACUGAGCGGAUAACCUCUCUAUGG
RNA 2: GGGAAUGGAUCCACAUCUACGAAUUCGUACCAUAGAGAGGUUAUCCGCAUACCGAGAUCGGAAGAGCACACGU
B30: target 1 G5U,U8A (mixed)
RNA 1: B29 RNA 1
RNA 2: B29 RNA 2 with U44A, G47U, A49U, U50C
B31: target 1 insC 3' of 9,insU 3' of 1 (mixed)
RNA 1: B29 RNA 1
RNA 2: GGGAAUGGAUCCACAUCUACGAAUUCGUACCAUAGAGAGGUUACUCCGCUCAUCCGAGAUCGGAAGAGCACACGU

The target of this series is T1, EsCas13d, nuclease-dead. The series can be described thus: crRNA (strand 1, pre-loaded); Mg2+; 40 mM Tris-HCl pH 7.5, 150 mM NaCl, 6 mM MgCl2, 1 mM DTT, 0.1% Tween-20, 0.2 mg/ml BSA; 25 C; 10 min per concentration, then washed. To be noted: tags: His6-TwinStrep-SUMO cleaved; N-terminal SNAP kept (SNAP-Surface 488); label: 3' end held by stalled T7 RNA polymerase.
On to B1, for which binding was characterised by a dissociation constant (Kd) of 23 ± 4 nM.

B2 displayed a Kd of 24 ± 2.8 nM.

Turning to B3, the affinity, expressed as Kd, was 7.9 ± 1.3 nM. This Kd lies about 3-fold lower than the previous one.

Consider B4, for which the equilibrium dissociation constant (Kd) amounted to 7.3 ± 0.9 nM.

B5: the Kd came out at 2.77 ± 0.2 nM.

B6 yielded a dissociation constant Kd of 4.9 ± 0.7 nM.

Take B7: the equilibrium dissociation constant (Kd) was 7.4 ± 0.9 nM. Compared with the last molecule, the Kd is about 1.5-fold higher.

With B8, binding was put at a Kd of 12.6 ± 2.3 nM.

B9 returned a dissociation constant (Kd) of 9.3 ± 1.1 nM.

Take B10: the Kd turned out to be 9 ± 4 nM.

With B11, the Kd is 6.5 ± 2 nM.

The molecule B12 had a dissociation constant (Kd) of 8.5 ± 0.9 nM.

Molecule B13 gave a dissociation constant Kd of around 32 nM.

Turning to B14, the affinity, expressed as Kd, was 7.5 ± 1.6 nM.

On to B15, for which the dissociation constant (Kd) worked out at 4.9 ± 0.9 nM.

Turning to B16, the Kd is 41 ± 11 nM.

For the molecule B17, the Kd turned out to be 18 ± 3.5 nM.

B18 came in with an equilibrium dissociation constant (Kd) of 17.6 ± 3.3 nM.

As to B19, the Kd stood at 14.1 ± 3 nM.

Consider B20, for which the Kd amounted to 15 ± 4 nM.

The molecule B21 yielded a Kd of 1.8 ± 0.4 nM.

In turn, B22 registered a dissociation constant Kd of 15 ± 2.7 nM.

B23 displayed a dissociation constant Kd of 5.2 ± 0.6 nM. This Kd is about 2.9-fold lower than that of the molecule before.

As to B24, the equilibrium dissociation constant (Kd) turned out to be 20.9 ± 2.2 nM. This Kd is about 4-fold higher than that of the molecule before.

In turn, B25 gave a dissociation constant (Kd) of 9.8 ± 1.1 nM.

As for B26, the affinity, expressed as Kd, was 8.2 ± 1.7 nM.

For B27, binding was characterised by a dissociation constant (Kd) of 9.4 ± 1.7 nM.

As for B28, binding was put at a Kd of 7.3 ± 0.9 nM.

Regarding B29, the affinity, expressed as Kd, was 16.1 ± 1.9 nM. This Kd is about 2.2-fold higher than that of the molecule before.

As for B30, the Kd was around 70 nM.

Molecule B31 registered a Kd of 14.6 ± 0.7 nM.
